Values of other authors as cited in publication PMC12799613.

What was measured:
[1] = target: TRPM3 peptide (Mus musculus) (UniProt J9SQF3)
[2] = target: GIRK2 (Kir3.2), first Gβγ binding (Mus musculus) (UniProt P48542)
[3] = target: GIRK2 (Kir3.2), fourth Gβγ binding (Mus musculus) (UniProt P48542)
TRPC5 (Homo sapiens) = TRPC5 (Homo sapiens) (UniProt Q9UL62)
Sequence of TRPC5 (Homo sapiens) (Q9UL62 whole entry): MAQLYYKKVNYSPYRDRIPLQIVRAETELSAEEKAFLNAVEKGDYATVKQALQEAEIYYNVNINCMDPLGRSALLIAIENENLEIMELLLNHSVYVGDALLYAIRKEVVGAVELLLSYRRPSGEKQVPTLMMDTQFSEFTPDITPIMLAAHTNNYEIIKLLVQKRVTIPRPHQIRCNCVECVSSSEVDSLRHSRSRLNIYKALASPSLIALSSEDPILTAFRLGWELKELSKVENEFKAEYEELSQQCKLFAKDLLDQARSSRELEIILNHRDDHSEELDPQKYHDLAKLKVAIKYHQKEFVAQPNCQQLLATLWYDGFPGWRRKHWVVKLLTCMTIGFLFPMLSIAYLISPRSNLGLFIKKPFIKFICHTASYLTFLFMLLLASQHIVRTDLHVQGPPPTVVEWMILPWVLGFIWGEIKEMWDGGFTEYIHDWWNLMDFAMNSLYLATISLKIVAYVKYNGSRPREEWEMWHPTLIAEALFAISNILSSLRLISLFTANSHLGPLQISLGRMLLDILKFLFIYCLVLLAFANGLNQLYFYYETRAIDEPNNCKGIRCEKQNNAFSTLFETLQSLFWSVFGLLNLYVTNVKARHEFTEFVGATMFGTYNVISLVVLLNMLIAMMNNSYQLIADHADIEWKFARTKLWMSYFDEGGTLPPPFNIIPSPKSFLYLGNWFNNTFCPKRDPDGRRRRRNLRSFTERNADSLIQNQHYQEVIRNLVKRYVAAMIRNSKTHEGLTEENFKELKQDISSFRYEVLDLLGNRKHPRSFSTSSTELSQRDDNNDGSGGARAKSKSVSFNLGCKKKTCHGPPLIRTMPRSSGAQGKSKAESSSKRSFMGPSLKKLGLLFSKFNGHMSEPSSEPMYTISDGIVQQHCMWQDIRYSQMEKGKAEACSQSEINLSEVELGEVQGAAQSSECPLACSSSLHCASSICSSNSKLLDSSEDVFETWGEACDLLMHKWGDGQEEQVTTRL

Sequence of Gβ1γ2 (P62873 2-340): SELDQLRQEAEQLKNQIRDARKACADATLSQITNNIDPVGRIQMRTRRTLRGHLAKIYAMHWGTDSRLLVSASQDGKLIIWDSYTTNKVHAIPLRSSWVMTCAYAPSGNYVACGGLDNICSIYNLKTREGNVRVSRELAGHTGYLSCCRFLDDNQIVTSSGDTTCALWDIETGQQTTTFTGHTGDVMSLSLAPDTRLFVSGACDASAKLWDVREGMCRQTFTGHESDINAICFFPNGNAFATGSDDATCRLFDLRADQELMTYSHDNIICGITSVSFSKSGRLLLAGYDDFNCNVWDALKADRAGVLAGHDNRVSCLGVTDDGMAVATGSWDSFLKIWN
Sequence of Gβ1γ2 (P59768 2-68, further chain): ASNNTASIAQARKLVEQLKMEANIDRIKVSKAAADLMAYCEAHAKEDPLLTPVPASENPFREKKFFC
Sequence of GIRK2 (Kir3.2), first Gβγ binding (Mus musculus) (P48542 whole entry): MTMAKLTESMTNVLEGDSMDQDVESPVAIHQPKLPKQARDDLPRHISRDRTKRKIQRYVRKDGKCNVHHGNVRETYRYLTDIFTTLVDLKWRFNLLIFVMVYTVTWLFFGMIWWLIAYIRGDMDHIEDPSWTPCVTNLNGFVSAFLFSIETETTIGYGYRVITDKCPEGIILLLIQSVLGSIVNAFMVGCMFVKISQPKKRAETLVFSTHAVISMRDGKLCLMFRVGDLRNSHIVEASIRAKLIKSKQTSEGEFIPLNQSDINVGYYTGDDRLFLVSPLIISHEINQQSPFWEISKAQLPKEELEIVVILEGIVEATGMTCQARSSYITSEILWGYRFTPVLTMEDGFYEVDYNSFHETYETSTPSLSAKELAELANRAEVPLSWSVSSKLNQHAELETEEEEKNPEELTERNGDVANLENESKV
Sequence of GIRK2 (Kir3.2), fourth Gβγ binding (Mus musculus) (P48542 whole entry): as above
Sequence of Gαi3 (P08754 2-354): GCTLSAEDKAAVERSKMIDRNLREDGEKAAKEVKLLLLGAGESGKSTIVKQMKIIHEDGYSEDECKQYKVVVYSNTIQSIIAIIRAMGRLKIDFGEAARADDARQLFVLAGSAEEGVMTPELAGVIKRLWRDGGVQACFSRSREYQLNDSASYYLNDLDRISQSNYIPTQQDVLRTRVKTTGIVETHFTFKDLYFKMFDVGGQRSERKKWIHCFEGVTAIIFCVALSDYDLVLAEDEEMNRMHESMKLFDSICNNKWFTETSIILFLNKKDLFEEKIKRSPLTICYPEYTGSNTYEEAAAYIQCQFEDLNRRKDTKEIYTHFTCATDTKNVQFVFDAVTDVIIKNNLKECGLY
Sequence of TRPM3 peptide (Mus musculus) (J9SQF3 whole entry): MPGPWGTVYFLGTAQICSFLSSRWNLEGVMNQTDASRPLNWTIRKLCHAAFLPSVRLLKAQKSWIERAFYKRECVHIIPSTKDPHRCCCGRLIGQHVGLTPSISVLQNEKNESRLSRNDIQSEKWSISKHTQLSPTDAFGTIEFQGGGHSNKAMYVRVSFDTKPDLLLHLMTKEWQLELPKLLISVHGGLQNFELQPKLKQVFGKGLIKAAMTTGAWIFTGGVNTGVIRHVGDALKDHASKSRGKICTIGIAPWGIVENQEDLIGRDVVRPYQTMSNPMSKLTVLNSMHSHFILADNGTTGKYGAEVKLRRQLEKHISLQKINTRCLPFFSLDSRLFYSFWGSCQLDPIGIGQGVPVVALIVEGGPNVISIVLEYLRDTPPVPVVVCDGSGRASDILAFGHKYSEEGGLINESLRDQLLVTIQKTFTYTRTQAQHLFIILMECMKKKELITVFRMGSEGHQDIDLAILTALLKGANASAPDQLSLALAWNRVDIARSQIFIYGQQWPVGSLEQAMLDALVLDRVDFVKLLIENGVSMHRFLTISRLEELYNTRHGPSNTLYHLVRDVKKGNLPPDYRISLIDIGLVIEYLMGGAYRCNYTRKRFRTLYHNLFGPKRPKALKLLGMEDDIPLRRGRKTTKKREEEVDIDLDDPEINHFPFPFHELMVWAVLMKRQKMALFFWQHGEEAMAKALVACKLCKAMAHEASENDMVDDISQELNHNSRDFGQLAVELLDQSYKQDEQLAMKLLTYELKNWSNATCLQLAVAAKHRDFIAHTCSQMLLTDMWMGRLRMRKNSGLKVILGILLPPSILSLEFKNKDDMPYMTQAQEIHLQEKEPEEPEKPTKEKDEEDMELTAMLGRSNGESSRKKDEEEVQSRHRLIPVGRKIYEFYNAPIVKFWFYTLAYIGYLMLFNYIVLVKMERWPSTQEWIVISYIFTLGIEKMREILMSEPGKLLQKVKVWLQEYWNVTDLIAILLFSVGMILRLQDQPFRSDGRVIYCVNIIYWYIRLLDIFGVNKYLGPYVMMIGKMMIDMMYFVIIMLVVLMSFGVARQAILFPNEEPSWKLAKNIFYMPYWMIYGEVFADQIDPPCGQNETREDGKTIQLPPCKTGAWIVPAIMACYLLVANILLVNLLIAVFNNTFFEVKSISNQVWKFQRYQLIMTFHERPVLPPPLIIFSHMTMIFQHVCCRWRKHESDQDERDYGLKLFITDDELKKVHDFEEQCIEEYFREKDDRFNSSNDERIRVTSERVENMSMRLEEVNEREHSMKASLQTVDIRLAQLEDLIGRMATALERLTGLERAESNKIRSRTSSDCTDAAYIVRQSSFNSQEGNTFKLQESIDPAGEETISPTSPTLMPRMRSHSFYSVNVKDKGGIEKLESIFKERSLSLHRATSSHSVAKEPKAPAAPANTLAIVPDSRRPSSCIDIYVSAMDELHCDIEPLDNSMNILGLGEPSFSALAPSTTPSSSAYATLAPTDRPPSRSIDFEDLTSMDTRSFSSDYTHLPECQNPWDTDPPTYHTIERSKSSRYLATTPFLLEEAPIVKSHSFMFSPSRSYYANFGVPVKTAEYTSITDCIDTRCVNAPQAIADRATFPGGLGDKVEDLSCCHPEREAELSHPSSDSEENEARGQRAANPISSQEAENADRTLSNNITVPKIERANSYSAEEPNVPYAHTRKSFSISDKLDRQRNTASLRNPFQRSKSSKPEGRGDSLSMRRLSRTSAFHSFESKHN

Kd [1] [µM]	Kd [2] [mM]	Kd [3] [µM]	Kd (TRPC5 (Homo sapiens)) [nM]	Substance
56	1.9	50	–	Gβ1γ2 (from UniProt P62873)
–	–	–	910	Gαi3 (from UniProt P08754)
